The target of this experiment is actin (of the actin-chitin affinity column). The experiment is described as follows: sequential dual-affinity chromatography; DBP of donor eluted from the 25-OH-D3/Sepharose column, loaded on the Actin/chitin column.

Among the data in publication PMC10743851 are percent bound values, retold here.

As for “vitamin D3-binding protein (DBP) of donor (from UniProt P02774 17-474) (natural protein)”, the percent bound was < 10%.
